The source of these data is paper PMC11098746 (2024).

Sequences and labels used below:
B1: ADP121 (protein)
chain: MGTLLLVLWLATRGSALYFHIGETEKKCFIEEIPDETMVIGNYRTQLYDKQREEYQPATPGLGMFVEVKDPEDKVILARQYGSEGRFTFTSHTPGEHQICLHSNSTKFSLFAGGMLRVHLDIQVGEHANDYAEIAAKDKLSELQLRVRQLVEQVEQIQKEQNYQRWREERFRQTSESTNQR
modifications: bait human Fc-tagged dimer
B2: ADP359 (protein)
chain: MAAEWASRFWLWATLLIPAAAVYEDQVGKFDWRQQYVGKVKFASLEFSPGSKKLVVATEKNVIAALNSRTGEILWRHVDKGTAEGAVDAMLLHGQDVITVSNGGRIMRSWETNIGGLNWEITLDSGSFQALGLVGLQESVRYIAVLKKTTLALHHLSSGHLKWVEHLPESDSIHYQMVYSYGSGVVWALGVVPFSHVNIVKFNVEDGEIVQQVRVSTPWLQHLSGACGVVDEAVLVCPDPSSRSLQTLALETEWELRQIPLQSLDLEFGSGFQPRVLPTQPNPVDASRAQFFLHLSPSHYALLQYHYGTLSLLKNFPQTALVSFATTGEKTVAAVMACRNEVQKSSSSEDGSMGSFSEKSSSKDSLACFNQTYTINLYLVETGRRLLDTTITFSLEQSGTRPERLYIQVFLKKDDSVGYRALVQTEDHLLLFLQQLAGKVVLWSREESLAEVVCLEMVDLPLTGAQAELEGEFGKKADGLLGMFLKRLSSQLILLQAWTSHLWKMFYDARKPRSQIKNEINIDTLARDEFNLQKMMVMVTASGKLFGIESSSGTILWKQYLPNVKPDSSFKLMVQRTTAHFPHPPQCTLLVKDKESGMSSLYVFNPIFGKWSQVAPPVLKRPILQSLLLPVMDQDYAKVLLLIDDEYKVTAFPATRNVLRQLHELAPSIFFYLVDAEQGRLCGYRLRKDLTTELSWELTIPPEVQRIVKVKGKRSSEHVHSQGRVMGDRSVLYKSLNPNLLAVVTESTDAHHERTFIGIFLIDGVTGRIIHSSVQKKAKGPVHIVHSENWVVYQYWNTKARRNEFTVLELYEGTEQYNATAFSSLDRPQLPQVLQQSYIFPSSISAMEATITERGITSRHLLIGLPSGAILSLPKALLDPRRPEIPTEQSREENLIPYSPDVQIHAERFINYNQTVSRMRGIYTAPSGLESTCLVVAYGLDIYQTRVYPS
modifications: bait human Fc-tagged dimer
B3: ADP368 (protein)
chain: MERASCLLLLLLPLVHVSATTPEPCELDDEDFRCVCNFSEPQPDWSEAFQCVSAVEVEIHAGGLNLEPFLKRVDADADPRQYADTVKALRVRRLTVGAAQVPAQLLVGALRVLAYSRLKELTLEDLKITGTMPPLPLEATGLALSSLRLRNVSWATGRSWLAELQQWLKPGLKVLSIAQAHSPAFSCEQVRAFPALTSLDLSDNPGLGERGLMAALCPHKFPAIQNLALRNTGMETPTGVCAALAAAGVQPHSLDLSHNSLRATVNPSAPRCMWSSALNSLNLSFAGLEQVPKGLPAKLRVLDLSCNRLNRAPQPDELPEVDNLTLDGNPFLVPGTALPHEGSMN
modifications: bait human Fc-tagged dimer
B4: ADP269 (protein)
chain: SRHQAPCGPQAFAHAAVAADSKVCSDIGRAILQQQGSPVDATIAALVCTSVVNPQSMGLGGGVIFTIYNVTTGKVEVINARETVPASHAPSLLDQCAQALPLGTGAQWIGVPGELRGYAEAHRRHGRLPWAQLFQPTIALLRGGHVVAPVLSRFLHNSILRPSLQASTLRQLFFNGTEPLRPQDPLPWPALATTLETVATEGVEVFYTGRLGQMLVEDIAKEGSQLTLQDLAKFQPEVVDALEVPLGDYTLYSPPPPAGGAILSFILNVLRGFNFSTESMARPEGRVNVYHHLVETLKFAKGQRWRLGDPRSHPKLQNASRDLLGETLAQLIRQQIDGRGDHQLSHYSLAEAWGHGTGTSHVSVLGEDGSAVAATSTINTPFGAMVYSPRTGIILNNELLDLCERCPRGSGTTPSPAVSGDRVGGAPGRCWPPVPGERSPSSMVPSILINKAQGSKLVIGGAGGELIISAVAQAIMSKLWLGFDLRAAIAAPILHVNSKGCVEYEPNFSQEVQRGLQDRGQNQTQRPFFLNVVQAVSQEGACVYAVSDLRKSGEAAGY
modifications: bait human Fc-tagged dimer
B5: ADP096 (protein)
chain: GIQYQTRSPSVCLSEACVSVTSSILSSMDPTVDPCHDFFSYACGGWIKANPVPDGHSRWGTFSNLWEHNQAIIKHLLENSTASVSEAERKAQVYYRACMNETRIEELRAKPLMELIERLGGWNITGPWAKDNFQDTLQVVTAHYRTSPFFSVYVSADSKNSNSNVIQVDQSGLGLPSRDYYLNKTENEKVLTGYLNYMVQLGKLLGGGDEEAIRPQMQQILDFETALANITIPQEKRRDEELIYHKVTAAELQTLAPAINWLPFLNTIFYPVEINESEPIVVYDKEYLEQISTLINTTDRCLLNNYMIWNLVRKTSSFLDQRFQDADEKFMEVMYGTKKTCLPRWKFCVSDTENNLGFALGPMFVKATFAEDSKSIATEIILEIKKAFEESLSTLKWMDEETRKSAKEKADAIYNMIGYPNFIMDPKELDKVFNDYTAVPDLYFENAMRFFNFSWRVTADQLRKAPNRDQWSMTPPMVNAYYSPTKNEIVFPAGILQAPFYTRSSPKALNFGGIGVVVGHELTHAFDDQGREYDKDGNLRPWWKNSSVEAFKRQTECMVEQYSNYSVNGEPVNGRHTLGENIADNGGLKAAYRAYQNWVKKNGAEHSLPTLGLTNNQLFFLGFAQVWCSVRTPESSHEGLITDPHSPSRFRVIGSLSNSKEFSEHFRCPPGSPMNPPHKCEVW
modifications: bait human Fc-tagged dimer
B6: ADP316 (protein)
chain: MAAAGAAVARSPGIGAGPALRARRSPPPRAARLPRLLVLLAAAAVGPGAGGAARLYRAGEDAVWVLDSGSVRGATANSSAAWLVQFYSSWCGHCIGYAPTWRALAGDVRDWASAIRVAALDCMEEKNQAVCHDYDIHFYPTFRYFKAFTKEFTTGENFKGPDRELRTVRQTMIDFLQNHTEGSRPPACPRLDPIQPSDVLSLLDNRGSHYVAIVFESNSSYLGREVILDLIPYESIVVTRALDGDKAFLEKLGVSSVPSCYLIYPNGSHGLINVVKPLRAFFSSYLKSLPDVRKKSLPLPEKPHKEENSEIVVWREFDKSKLYTVDLESGLHYLLRVELAAHKSLAGAELKTLKDFVTVLAKLFPGRPPVKKLLEMLQEWLASLPLDRIPYNAVLDLVNNKMRISGIFLTNHIKWVGCQGSRSELRGYPCSLWKLFHTLTVEASTHPDALVGTGFEDDPQAVLQTMRRYVHTFFGCKECGEHFEEMAKESMDSVKTPDQAILWLWKKHNMVNGRLAGHLSEDPRFPKLQWPTPDLCPACHEEIKGLASWDEGHVLTFLKQHYGRDNLLDTYSADQGDSSEGGTLARGEEEEKRLTPPEVSHGDRDTQSVRPPGALGPRPALPESLHHSLDGKLQSLDGPGAHKEVGGAAPFLGVDFSSLDM
modifications: bait human Fc-tagged dimer
B7: ADP383 (protein)
chain: GLKPSCAKEVKSCKGRCFERTFGNCRCDAACVELGNCCLDYQETCIEPEHIWTCNKFRCGEKRLTRSLCACSDDCKDKGDCCINYSSVCQGEKSWVEEPCESINEPQCPAGFETPPTLLFSLDGFRAEYLHTWGGLLPVISKLKKCGTYTKNMRPVYPTKTFPNHYSIVTGLYPESHGIIDNKMYDPKMNASFSLKSKEKFNPEWYKGEPIWVTAKYQGLKSGTFFWPGSDVEINGIFPDIYKMYNGSVPFEERILAVLQWLQLPKDERPHFYTLYLEEPDSSGHSYGPVSSEVIKALQRVDGMVGMLMDGLKELNLHRCLNLILISDHGMEQGSCKKYIYLNKYLGDVKNIKVIYGPAARLRPSDVPDKYYSFNYEGIARNLSCREPNQHFKPYLKHFLPKRLHFAKSDRIEPLTFYLDPQWQLALNPSERKYCGSGFHGSDNVFSNMQALFVGYGPGFKHGIEADTFENIEVYNLMCDLLNLTPAPNNGTHGSLNHLLKNPVYTPKHPKEVHPLVQCPFTRNPRDNLGCSCNPSILPIEDFQTQFNLTVAEEKIIKHETLPYGRPRVLQKENTICLLSQHQFMSGYSQDILMPLWTSYTVDRNDSFSTEDFSNCLYQDFRIPLSPVHKCSFYKNNTKVSYGFLSPPQLNKNSSGIYSEALLTTNIVPMYQSFQVIWRYFHDTLLRKYAEERNGVNVVSGPVFDFDYDGRCDSLENLRQKRRVIRNQEILIPTHFFIVLTSCKDTSQTPLHCENLDTLAFILPHRTDNSESCVHGKHDSSWVEELLMLHRARITDVEHITGLSFYQQRKEPVSDILKLKTHLPTFSQED
modifications: bait human Fc-tagged dimer

The target in the test is Circumsporozoite protein (CSP) (Plasmodium falciparum (isolate 3D7), UniProt Q7K740). Briefly: AVEXIS screen signal:noise (double-corrected).
Circumsporozoite protein (CSP), sequence (Q7K740 19-374): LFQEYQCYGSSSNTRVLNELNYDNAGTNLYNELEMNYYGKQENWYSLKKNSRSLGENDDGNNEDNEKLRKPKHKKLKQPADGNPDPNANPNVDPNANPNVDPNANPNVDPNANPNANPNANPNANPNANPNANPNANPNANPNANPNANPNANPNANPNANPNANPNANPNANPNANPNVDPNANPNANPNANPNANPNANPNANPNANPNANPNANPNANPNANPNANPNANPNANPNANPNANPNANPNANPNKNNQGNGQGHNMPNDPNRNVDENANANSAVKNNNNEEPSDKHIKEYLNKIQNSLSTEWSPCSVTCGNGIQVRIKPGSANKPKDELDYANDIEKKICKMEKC
B1 had a binding score of 0.979. With B2 the figure was 0.432; with B3, 1.29. The molecule B4 showed a binding score of 0.734.

Regarding B5, the binding score came to 0.507. In the case of B6 it was 1.06; in that of B7, 0.856.
